According to PMC6945068:

Target: purified 3xFlag-tagged B56γ (Xenopus laevis)
Assay: pull-down (amylose beads) with immunoblot quantification
Conditions: chain shown with the change, purified Flag-B56γ, 23°C, 30 min, read off a plot

Sequence of purified 3xFlag-tagged B56γ (Xenopus laevis) (chain, as listed by the source): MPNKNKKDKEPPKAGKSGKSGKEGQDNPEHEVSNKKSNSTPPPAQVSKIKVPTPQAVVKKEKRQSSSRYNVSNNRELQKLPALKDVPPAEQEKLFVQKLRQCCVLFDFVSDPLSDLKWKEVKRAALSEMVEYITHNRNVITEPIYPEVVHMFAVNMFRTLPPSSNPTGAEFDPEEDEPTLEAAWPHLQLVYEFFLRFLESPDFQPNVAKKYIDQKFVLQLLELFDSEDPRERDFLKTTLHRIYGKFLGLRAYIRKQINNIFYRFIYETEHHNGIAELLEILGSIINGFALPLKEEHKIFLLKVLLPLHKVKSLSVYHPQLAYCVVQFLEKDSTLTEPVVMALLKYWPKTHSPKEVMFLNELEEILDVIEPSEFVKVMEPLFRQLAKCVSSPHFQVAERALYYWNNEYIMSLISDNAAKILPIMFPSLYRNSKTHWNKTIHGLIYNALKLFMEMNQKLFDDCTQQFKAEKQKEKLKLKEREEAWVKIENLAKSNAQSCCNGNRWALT

B1: MBP-fused Apc1-loop^500 wild type (residues 515-584 of Xenopus tropicalis Apc1), Q08D52 T532A; T539A; S558A (protein)
chain: GLAAPSLGMSNPMPRPSAPLESISAPAKPLNKHLAPMDEAGMLAPVPELRDSTRLHESTYLDDCTFHQFG
With B1 the response (pre-incubated with Cdk2-cyclin A at 30°C for 60 min (+Cdk), parent: est. 5.3) was 1.2 A.U and the response (without Cdk2-cyclin A pre-incubation, parent: 1.0) was 1 A.U.
